According to PMC10094569:

Molecular target: human IgG1 Fc, from HEK-293T cells (human)
Experiment: SEC; each protein alone on Superdex 200 in PBS; molecular weights from the filtration patterns

human IgG1 Fc, from HEK-293T cells (domain or fragment)
stoichiometry N: 2
